Where two headings read alike, the source gives them in different places. Where a SMILES comes first, the peptide text is derived from it. Bridges are numbered along the chain shown (N, C = ends). Roman numbers before positions name the chains, in order. Where no end group is shown, it is not given here. [ ]: non-standard residue; d: D form. βDpr = 2,3-diaminopropanoic acid whose beta-amino group bears the -CH2CO- link to the S of (NMe)hCys; GlyMeDOTA = DOTA chelator on the lysine side chain; Tpi = O=C(O)[C@@H]1Cc2c([nH]c3ccccc23)CN1; βAla(cyclopropyl) = beta-Ala(cyclopropyl); Phe(4-NH2) = Nc1ccc(C[C@H](N)C(=O)O)cc1; 1Nal = N[C@@H](Cc1cccc2ccccc12)C(=O)O; NMeF = CN[C@@H](Cc1ccccc1)C(=O)O; NMehCys = CN[C@@H](CCS)C(=O)O; Dap = NC[C@H](N)C(=O)O
Tests used:
SSTR5 = SSTR5 (Homo sapiens, UniProt P35346); assay: Radioligand binding assay on membranes of CHO-K1 cells expressing SSTR5; settings: for IC50: membranes from CHO-K1 cells stably expressing cloned somatostatin receptor 5; for Ratio 2/5 in %: ratio of IC50 SSTR2 / IC50 SSTR5 in %
Procedure: (§1) Radiolabeling binding assays were carried out as described in the prior art like, e.g. in Gazal S. et al (2002) J. Med. Chem. 45: 1665-1671. The radioligand binding assays were carried out on membranes prepared from CHO-K1 cells stably expressing individually cloned somatostatin receptors 2 or 5 (SSTR2 or SSTR5). Cells were grown for 2 days for almost confluence and were washed and scraped into 50 mM ice-cold Tris-HCl, pH 7.8, containing 1 mM EGTA, 5 mM MgCl2, […], 0.1 mM PMSF, and 0.5 mg/mL aprotinin (buffer A) and were centrifuged at 10,000 rpm for 10 min at 4° C. (in Sorvall RC 26 Plus ultracentrifuge, rotor SS-34). The pellet was resuspended in buffer A and homogenized with a Polytron PT 1200 homogenizer (Kinematica AG, Switzerland) (setting 2, 3 strokes 10 s each). The homogenate was then centrifuged at 20 000 rpm for 20 min at 4° C. The pellet was resuspended in buffer A and homogenized using the Polytron homogenizer (setting 2, 3 strokes 5 s each). The protein content was determined by Bradford, and the membrane preparation was diluted in buffer A containing 1 mg/mL bovine serum albumin (BSA) to a final 0.2 or 0.4 mg/mL membrane protein (depending on the specific somatostatin receptor used).
(§2) The radioligand binding assay was performed in 96 well microtiter plates (Maxisorp plates, Nunc, Denmark). Cell membranes ([…] protein) were incubated with the various cyclized peptides indicated in Table 1 & 2, which comprised a lanthanide chelation unit, in a final volume of 250 μL, for 45 min. at room temperature in the presence or absence of competing peptides. Nonspecific binding was defined as the radioactivity remaining bound in the presence of […] somatostatin. At the end of the binding, reaction free radioligand was separated from bound Ligand by rapid filtration through UniFilter GF/C plates preincubated in a solution of 5 g/L polyethyleneimine and 1 g/L BSA. The filtration was performed in Filter-Mate Cell Harvester (Packard Instrument Company, U.S.A.). After filtration, the filters were washed several times with cold buffer A containing 1 mg/mL BSA and allowed to dry overnight at room temperature. Then, bound radioactivity was counted. The binding assays were performed in triplicate wells. Data from radioligand binding were used to generate inhibition curves, and IC50 values were determined for each of the tested peptides. The saturation binding data were analyzed by the method of Scatchard, and IC50 values are expressed as mean±SEM (standard error of the mean).

SSTR2 = SSTR2 (Homo sapiens, UniProt P30874); assay: Radioligand binding assay on membranes of CHO-K1 cells expressing SSTR2; settings: membranes from CHO-K1 cells stably expressing cloned somatostatin receptor 2
Procedure: as §1, §2

somatostatin receptor 2 [1] = target: T1, somatostatin receptor 2 (UniProt P30874 1-369, limits assumed); assay: radioligand competition binding, membranes of CHO-K1 cells expressing SSTR2
T1 construct: whole, on cells; Assayed as membrane preparation of CHO-K1 cells stably expressing the cloned receptor; also called SSTR2; somatostatin receptor subtype 2

somatostatin receptor 5 [2] = target: T2, somatostatin receptor 5 (UniProt P35346 1-364, limits assumed); assay: ratio of IC50 on SSTR2 to IC50 on SSTR5 (reference SSTR2), radioligand competition binding on CHO-K1 membranes
T2 construct: whole, on cells; Assayed as membrane preparation of CHO-K1 cells stably expressing the cloned receptor; also called SSTR5; somatostatin receptor subtype 5

somatostatin receptor 5 [3] = target: T2, somatostatin receptor 5; assay: radioligand competition binding, membranes of CHO-K1 cells expressing SSTR5
somatostatin receptor 5 [4] = target: T2, somatostatin receptor 5; assay: ratio of IC50 on SSTR2 to IC50 on SSTR5 (reference SSTR2), radioligand competition binding on CHO-K1 membranes; remark: listed apart in the source
somatostatin receptor 2 [5] = target: T1, somatostatin receptor 2; assay: radioligand competition binding, membranes of CHO-K1 cells expressing SSTR2; remark: listed apart in the source
somatostatin receptor 5 [6] = target: T2, somatostatin receptor 5; assay: radioligand competition binding, membranes of CHO-K1 cells expressing SSTR5; remark: listed apart in the source

Chain of SSTR2 (P30874 whole entry): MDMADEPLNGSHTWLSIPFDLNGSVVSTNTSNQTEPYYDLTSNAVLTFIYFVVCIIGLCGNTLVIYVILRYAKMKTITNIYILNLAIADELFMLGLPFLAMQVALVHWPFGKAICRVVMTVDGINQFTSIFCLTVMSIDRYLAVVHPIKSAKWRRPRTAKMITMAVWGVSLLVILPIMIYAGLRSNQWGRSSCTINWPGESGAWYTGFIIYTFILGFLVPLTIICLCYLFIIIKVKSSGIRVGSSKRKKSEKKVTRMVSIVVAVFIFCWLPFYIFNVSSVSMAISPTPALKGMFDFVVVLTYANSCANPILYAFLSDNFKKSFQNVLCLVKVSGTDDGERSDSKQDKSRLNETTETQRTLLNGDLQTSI
T1 sequence (P30874 whole entry): as above
Chain of SSTR5 (P35346 whole entry): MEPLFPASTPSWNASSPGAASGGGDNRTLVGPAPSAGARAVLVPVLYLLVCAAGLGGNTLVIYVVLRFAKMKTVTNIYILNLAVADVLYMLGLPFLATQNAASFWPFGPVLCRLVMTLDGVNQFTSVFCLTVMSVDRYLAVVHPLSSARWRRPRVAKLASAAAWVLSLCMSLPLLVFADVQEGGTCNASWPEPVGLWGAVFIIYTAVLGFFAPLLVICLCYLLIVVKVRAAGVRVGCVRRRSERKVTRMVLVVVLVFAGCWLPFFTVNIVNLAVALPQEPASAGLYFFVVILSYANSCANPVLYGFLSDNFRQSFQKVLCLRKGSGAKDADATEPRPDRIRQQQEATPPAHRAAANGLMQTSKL
T2 sequence (P35346 whole entry): as above

## C[C@@H](O)[C@@H]1NC(=O)[C@H](CCCCN)NC(=O)[C@@H](Cc2c[nH]c3ccccc23)NC(=O)[C@H](Cc2ccc(O)cc2)NC(=O)[C@H](CCS)N(C)C(=O)[C@H](Cc2ccccc2)NC1=O [P1839, cyclo[Tyr-DTrp-Lys-Thr-Phe-(NMe)hCys], reference compound]
SSTR5
  IC50: 22 nM
  Ratio 2/5 in %: 0.15%
SSTR2
  IC50: 0.032 nM

## CSCC[C@@H]1NC(=O)[C@H](C(C)C)NC(=O)[C@H](CCCCN)NC(=O)[C@@H](Cc2c[nH]c3ccccc23)NC(=O)[C@H](Cc2ccc(O)cc2)NC(=O)[C@H](Cc2ccccc2)N(C)C1=O [P2266, cyclo[Tyr-DTrp-Lys-Val-Met-(NMe)Phe]] (cyclo(Y[dW]KVM[NMeF]))
SSTR5
  IC50: 8.12 nM
  Ratio 2/5 in %: 3.2%
SSTR2
  IC50: 0.256 nM

B1: P2269 (peptide)
peptide: cyclo(W[dW]KTM[NMeF])
SMILES: CSCC[C@@H]1NC(=O)[C@H]([C@@H](C)O)NC(=O)[C@H](CCCCN)NC(=O)[C@@H](Cc2c[nH]c3ccccc23)NC(=O)[C@H](Cc2c[nH]c3ccccc23)NC(=O)[C@H](Cc2ccccc2)N(C)C1=O
notes: also called cyclo[Trp-DTrp-Lys-Thr-Met-(NMe)Phe]
Somatostatin receptor 2 [1]
  IC50: 0.501 nM
Somatostatin receptor 5 [2]
  Ratio 2/5 in %: 15.3%
Somatostatin receptor 5 [3]
  IC50: 3.27 nM

B2: P2323 (peptide)
peptide: cyclo([1Nal][dW]KTK(GlyMeDOTA)[NMeF])
notes: Cyclic hexapeptide carrying a DOTA chelator on Lys 5; also called cyclo[1Nal-DTrp-Lys-Thr-Lys(GlyMeDOTA)-(N-Me)Phe]
Somatostatin receptor 2 [1]
  IC50: 37.4 nM
Somatostatin receptor 5 [2]
  Ratio 2/5 in %: 399%
Somatostatin receptor 5 [3]
  IC50: 9.37 nM

B3: P2274 (peptide)
peptide: cyclo(Y[dW]KTM[Tpi])
SMILES: CSCC[C@@H]1NC(=O)[C@H]([C@@H](C)O)NC(=O)[C@H](CCCCN)NC(=O)[C@@H](Cc2c[nH]c3ccccc23)NC(=O)[C@H](Cc2ccc(O)cc2)NC(=O)[C@@H]2Cc3c([nH]c4ccccc34)CN2C1=O
notes: Cyclic hexapeptide; also called cyclo[Tyr-DTrp-Lys-Thr-Met-Tpi]
Somatostatin receptor 2 [1]
  IC50: 1.22 nM
Somatostatin receptor 5 [2]
  Ratio 2/5 in %: 6.1%
Somatostatin receptor 5 [3]
  IC50: 19.9 nM

B4: P2300 (peptide)
peptide: cyclo(Y[dW]K[βAla(cyclopropyl)]M[NMeF])
notes: Cyclic hexapeptide; also called cyclo[Tyr-DTrp-Lys-BAla(cyclopropyl)-Met-(N-Me)Phe]
Somatostatin receptor 2 [1]
  IC50: 0.198 nM
Somatostatin receptor 5 [2]
  Ratio 2/5 in %: 0.96%
Somatostatin receptor 5 [3]
  IC50: 20.7 nM

B5: P2267 (peptide)
peptide: cyclo(Y[dW]K[Dap]M[NMeF])
SMILES: CSCC[C@@H]1NC(=O)[C@H](CN)NC(=O)[C@H](CCCCN)NC(=O)[C@@H](Cc2c[nH]c3ccccc23)NC(=O)[C@H](Cc2ccc(O)cc2)NC(=O)[C@H](Cc2ccccc2)N(C)C1=O
notes: Cyclic hexapeptide; also called cyclo[Tyr-DTrp-Lys-Dpr-Met-(NMe)Phe]
Somatostatin receptor 2 [1]
  IC50: 0.501 nM
Somatostatin receptor 5 [2]
  Ratio 2/5 in %: 1.9%
Somatostatin receptor 5 [3]
  IC50: 25.9 nM

B6: P1839 (peptide)
peptide: cyclo(Y[dW]KTF[NMehCys])
SMILES: C[C@@H](O)[C@@H]1NC(=O)[C@H](CCCCN)NC(=O)[C@@H](Cc2c[nH]c3ccccc23)NC(=O)[C@H](Cc2ccc(O)cc2)NC(=O)[C@H](CCS)N(C)C(=O)[C@H](Cc2ccccc2)NC1=O
notes: Known somatostatin analogue tested as comparison; also called cyclo[Tyr-DTrp-Lys-Thr-Phe-(NMe)hCys]
Somatostatin receptor 5 [4]
  Ratio 2/5 in %: 0.15%

B7: P2045 (peptide)
peptide 1: Y[dW]KTF[NMehCys]
peptide 2: [βDpr][Phe(4-NH2)]CTS-OH
modifications: thioether I:6-II:1 via CH2CO; also: head-to-tail to a chain's N/C-terminus
notes: also called cyclo[Tyr-DTrp-Lys-Thr-Phe-(NMe)hCys]-CH2CO-βDpr-Phe(4-NH2)-Cys-Thr-Ser-OH
Somatostatin receptor 5 [4]
  Ratio 2/5 in %: 0.084%
Somatostatin receptor 2 [5]
  IC50: 0.21 nM
Somatostatin receptor 5 [6]
  IC50: 249 nM

B8: ReP2045 (peptide)
peptide 1: Y[dW]KTF[NMehCys]
peptide 2: [βDpr][Phe(4-NH2)]CTS-OH
modifications: thioether I:6-II:1 via CH2CO; not fully specified; also: head-to-tail to a chain's N/C-terminus
notes: also called cyclo[Tyr-DTrp-Lys-Thr-Phe-(NMe)hCys]-CH2CO-βDpr-Phe(4-NH2)-Cys-Thr-Ser-OH-[R = 0]
Somatostatin receptor 5 [4]
  Ratio 2/5 in %: 0.014%
Somatostatin receptor 2 [5]
  IC50: 0.089 nM
Somatostatin receptor 5 [6]
  IC50: 627 nM

— patent US20070066516A1, “Compounds comprising cyclized somatostatin receptor binding peptides” (priority 2005, published 2007)
